The values that follow come from patent publication US20200332015A1 (NAMAB THERAPEUTICS, published 2020).

A word on the Kd: it is the equilibrium constant for the complex coming apart. What is called koff is the rate constant with which the complex falls apart. As usually defined, the kon is the second-order rate constant of association. The EC50 is the concentration giving half of the maximal effect.

Experiment [1] concerns the target T1, human CD137 expressed on Jurkat cells (human, UniProt Q07011 24-255).
T1 construct: Also used here for CD137 on T cells of human PBMC in the IL-2 assays; also called Jurkat CD137 cells (clone C6, 1); membranous CD137
Briefly: flow cytometry on CD137 expressing Jurkat cells. On the procedure: (§1) Binding potency affinity to human CD137 expressing cells was also determined for selected scFvs. 50,000 CD137 expressing Jurkat cells (or as reference cell line Jurkat NFAT) were distributed to round bottom non-tissue culture treated 96 well plates. Cells were washed twice with 100 μl PBS by centrifugation at 400×g for 5 min. […] After 1 h incubation at 4° C. on a nutating mixer, cells were washed 3 times with 100 μl staining buffer and centrifugation steps of 5 min at 400×g. […] Plates were incubated 1 h at 4° C. on a nutating mixer, then washed 3 times with 100 μl of staining buffer and resuspended in a final volume of 50 μl of staining buffer. Finally, APC signal of 20,000 events per well was analyzed by flow cytometry using a Novocyte flow cytometer system (ACEA Bioscience).
For orientation: In flow cytometry, cells or beads pass a laser one at a time.

The target in experiment [2] is T2, human Fc-tagged CD40 (AcroBiosystems, cat. CDO-H5253) (human, UniProt P25942 21-193).
T2 construct: also called human CD40
Briefly: SPR T200, Fc-tagged CD40 captured, scFv analyte. The protocol:
(§2) In addition to cross-reactivity to cynomolgus monkey CD137, selectivity of binding of the anti-human CD137 scFvs to human CD137 and not to other members of the TNFR superfamily, such as CD40 and OX40, is desired. Therefore, binding of selected scFvs to human CD40 and OX40 was tested. Binding of scFvs to human Fc-tagged CD40 (AcroBiosystems, cat. CDO-H5253) and human Fc-tagged OX40 (Acro-Biosystems, cat. OXO-H5255) was determined by SPR analysis on a T200 device (Biacore, GE Healthcare). In this experiment, Fc-tagged CD40 and OX40 were captured using the Human Antibody Capture kit from GE healthcare (cat. BR-1008-39). After each analyte injection cycle, the anti-human Fc-specific IgG was regenerated and new antigen was captured. The scFvs were injected as analyte using a high concentration of 180 nM of the analyte diluted in running buffer. Association and dissociation time were set to 300 s and 720 s, respectively. Obtained sensorgrams were fitted using the 1:1 binding model.

The target of experiment [3] is T3, human Fc-tagged OX40 (Acro-Biosystems, cat. OXO-H5255) (human, UniProt P43489 29-216, limits assumed).
T3 construct: also called human OX40
T3 sequence (looked up): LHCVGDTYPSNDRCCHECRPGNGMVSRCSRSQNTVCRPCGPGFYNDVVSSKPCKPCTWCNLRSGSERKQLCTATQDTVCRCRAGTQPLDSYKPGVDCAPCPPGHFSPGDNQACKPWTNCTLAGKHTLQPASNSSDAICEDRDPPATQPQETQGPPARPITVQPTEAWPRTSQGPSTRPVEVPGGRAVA
The experiment in a line: SPR T200, Fc-tagged OX40 captured, scFv analyte. The protocol:
as §2

Experiment [4] has as its target T4, Fc tagged human CD137 (R&D Systems, cat. 838-4B-100) (human, UniProt Q07011 24-186).
T4 construct: also called CD137 Fc chimera; human CD137-Fc chimeric protein
Briefly: SPR T200, Fc-tagged antigen captured, scFv analyte. The protocol: (§3) Affinity of the humanized scFvs to human CD137 was determined by SPR analysis on a T200 device (Biacore, GE Healthcare). […] After each analyte injection cycle, the anti-human Fc-specific IgG was regenerated and new antigen was captured. The scFvs were injected as analyte using a dose response multi-cycle kinetic assay over the captured CD137 with concentrations of the analyte ranging from 0.19 to 45 nM (three-fold dilutions steps) diluted in running buffer. Association and dissociation time were set to 300 s and 720 s, respectively. Obtained sensorgrams were fitted using the 1:1 binding model.

Experiment [5] has as its target T5, cynomolgus monkey Fc-tagged CD137 (R&D Systems, cat. 9324-4B-100) (cynomolgus monkey, UniProt A9YYE7 24-186).
T5 construct: also called cynomolgus CD137-Fc chimeric protein
Briefly: SPR T200, Fc-tagged antigen captured, scFv analyte. On the procedure: as §3
Cross-reactivity to cynomolgus CD137 was measured with cynomolgus monkey Fc-tagged CD137 (R&D Systems, cat. 9324-4B-100) in a similar assay as used to measure binding to human CD137.

Experiment [6] concerns the target T6, mouse Fc-tagged mouse CD137 (R&D Systems, cat. 937-4B-050) (mouse, UniProt P20334 24-187).
T6 construct: also called mouse CD137-Fc chimeric protein
T6 sequence (looked up): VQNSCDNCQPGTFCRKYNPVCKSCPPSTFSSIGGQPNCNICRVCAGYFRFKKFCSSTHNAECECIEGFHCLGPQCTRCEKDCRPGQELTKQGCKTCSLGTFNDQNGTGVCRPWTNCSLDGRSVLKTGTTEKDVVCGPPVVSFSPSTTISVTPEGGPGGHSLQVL
Briefly: SPR T200, Fc-tagged antigen captured, scFv analyte.

In experiment [7] the target is T1, human CD137 expressed on Jurkat cells. Briefly: flow cytometry on CD137 expressing Jurkat cells, protein L-APC. The protocol: as §1

T5 sequence (A9YYE7 entry or part of it): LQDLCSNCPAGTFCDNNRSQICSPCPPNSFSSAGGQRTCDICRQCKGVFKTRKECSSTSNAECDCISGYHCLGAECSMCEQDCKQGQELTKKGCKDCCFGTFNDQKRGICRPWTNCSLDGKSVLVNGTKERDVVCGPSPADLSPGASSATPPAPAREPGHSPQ
T2 sequence (P25942 21-193 limits assumed): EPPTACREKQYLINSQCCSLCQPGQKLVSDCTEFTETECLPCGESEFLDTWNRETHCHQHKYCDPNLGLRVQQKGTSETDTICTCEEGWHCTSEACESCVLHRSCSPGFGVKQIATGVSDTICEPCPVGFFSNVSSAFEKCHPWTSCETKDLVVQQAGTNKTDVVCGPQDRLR

B1: PRO1352 (38-02-A04 sc13, CDR graft with interdomain disulfide, VH3, scFv) (scFv)
scFv: DIQMTQSPSSLSASVGDRVTITCQASQSINNVLAWYQQKPGKAPKLLIYRASTLASGVPSRFSGSGSGTDFTLTISSLQPEDFATYYCQSSYGNYGDFGCGTKVTVLGGGGGSGGGGSGGGGSGGGGSEVQLVESGGGLVQPGGSLRLSCAASGFSFSNSYWICWVRQAPGKCLEWIGCTFVGSSDSTYYANWAKGRFTISRDNSKNTVYLQMNSLRAEDTAVYYCARHPSDAVYGYANNLWGQGTLVTVSS
notes: VL-linker-VH; carries VH G51C and VL T141C (AHo numbering); also called the scFv based on 38-02-A04 clone
As for B1, the “Maximum binding (relative to urelumab)” value in experiment [1] was 10%. Also, the “rel. EC50 (EC50, urelumab/EC50, scFv)” value in experiment [1] stood at 0.057 ratio. Further, the binding result is “no binding (tested: 180 nM)” in experiment [2], “no binding (tested: 180 nM)” in experiment [3] and “no binding” in experiment [6]. Further, the Kd in experiment [4] and in experiment [5] was 1.47 nM throughout. Moreover, the koff in experiment [4] is 0.00103 s⁻¹; in experiment [5], 0.00102 s⁻¹. Besides, the kon is 701000 M⁻¹ s⁻¹ in experiment [4] and 695000 M⁻¹ s⁻¹ in experiment [5]. Further, it took 1.1 µg/mL to reach a half-maximal effect in experiment [7] (EC50).
